Measurements from patent US20190331690A1, “BIOTHIOL DETECTION COMPOSITION COMPRISING REDOX REGULATION PROTENIN” (INDUSTRY-UNIVERSITY COOPERATION FOUNDATION HANYANG …, priority 2016, published 2019).
Changes are numbered by the printed parent chain.

Assays:
OhrR [1] = target: T1, OhrR (Bacillus subtilis, UniProt O34777); experiment: OhrR-biothiol binding by MALDI-TOF MS; design: species or system B. subtilis; settings: 300 nM OhrR, 3 μM CHP
T1 construct: made in house
Description: It was confirmed whether it is possible to quantitatively analyze the binding of OhrR and a biothiol using a Matrix-Assisted Laser Desorption Ionization-Time-of-Flight Mass Spectrometry (MALDI-TOF mass spectrometer; MALDI-TOF MS).
1 mL of a 300 nM OhrR-containing buffer (20 mM Tris (pH 8.0), 100 mM NaCl, 5% Glycerol) was mixed with a biothiol (Cys, Hcy or GSH) at each concentration (0, 1, 2, 4, 8, 16, 32, or 64 μM). After 3 μM CHP reacted with each resulting mixture for 2 minutes, 110 μL of 100% TCA was treated to stop the oxidation reaction, and precipitate OhrR. To alkylate the precipitated OhrR, 50 mM iodoacetamide was treated, thereby blocking a cysteine residue of the reduced OhrR. The protein was isolated by sodium dodecyl sulphate-polyacrylamide gel electrophoresis (SDS-PAGE), and then a band corresponding to OhrR was cut out and treated with trypsin (37° C., 12 hours or more), followed by extraction from the gel. 0.5 μL of the extracted peptides were treated with 0.5 μL of a-cyano-4-hydroxycinnamic acid (CHCA) (in 50% acetonitrile, 1% TFA) and dehydrated, and then subjected to MALDI-TOF analysis. The MADI-TOF analysis was performed using a 4700 Proteomics Analyzer instrument (Applied Biosystems).

OhrR [2] = target: T1, OhrR; experiment: Biochip detection of LMW biothiols (His6-tag OhrR, HisProbe-HRP, TMB absorbance at 450 nm); assay type: biochemical; settings: same concentration (final 100 μM biothiol), CHP final 5 μM, 10 minutes
Description: A biochip method is for […] using His6-tag of OhrR, rather than by labeling with fluorescence or a DNAzyme, according to a principle that OhrR is detached from dsDNA attached to the surface of a biochip in the presence of LMW biothiols, thereby reducing a detection signal.
150 μL of 5 mg/mL NeutrAvidin® (Thermo Scientific, USA) diluted with a coating buffer (100 mM Na2HPO4, 50 mM citric acid) was put into each well of a transparent 96-well plate, and reacted at 37° C. for 4 to 5 hours, and then an unbound residue was washed with TBS four times. After washing, 300 μL of a Seablock blocking buffer (Thermo Scientific, USA) was put into each well and shaken at room temperature for 2 hours for blocking (process of coating NeutrAvidin-unbound surface to prevent non-specific reaction), followed by re-washing with TBS four times. […]
(§1) 50 μL of one of CHP (final 5 μM) and a LMW biothiol (final 100 μM for each of L-cysteine, homocysteine and GSH) was simultaneously put into each well using the biochip to which biotin-dsDNA and His6-tag OhrR were fixed to the NeutrAvidin-coated plate, reacted at room temperature for 10 minutes, and washed with TBS for 4 times. […] After 5 minutes, 2M sulfuric acid was added to stop the reaction, and absorbance was measured at 450 nm. […]

His6-OhrR = target: T2, His6-OhrR (Bacillus subtilis, UniProt O34777 SEQ:1-147); experiment: plate assay on NeutrAvidin, 5 uM OhrR, TBS, HisProbe-HRP readout; signal reduced by CHP plus biothiol; settings: tags: His6; chain copies: 2; label: biotin
T2 sequence: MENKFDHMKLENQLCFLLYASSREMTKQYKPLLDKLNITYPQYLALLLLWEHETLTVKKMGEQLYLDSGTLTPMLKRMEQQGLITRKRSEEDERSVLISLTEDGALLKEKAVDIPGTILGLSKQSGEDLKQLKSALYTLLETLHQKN
Description: 150 μL of 5 mg/mL NeutrAvidin® (Thermo Scientific, USA) diluted with a coating buffer (100 mM Na₂HPO₄, 50 mM citric acid) was put into each well of a transparent 96-well plate, and reacted at 37° C. for 4 to 5 hours, and then an unbound residue was washed with TBS four times. After washing, 300 μL of a Seablock blocking buffer (Thermo Scientific, USA) was put into each well and shaken at room temperature for 2 hours for blocking (process of coating NeutrAvidin-unbound surface to prevent non-specific reaction), followed by re-washing with TBS four times. 100 μL of a biotin-DNA solution diluted with a TBS buffer to 1 μM was put into each well of the blocking-completed microplate, and reacted at room temperature for 1 hour, followed by washing with TBS four times. […]
as §1

[3] = target: T3, OhrR (organic hydroperoxide regulator) (Bacillus subtilis, UniProt O34777 SEQ:1-147); experiment: BLI; 50 uM OhrR, TBS; binding thickness about 4.3 nm, falls to about 1 nm with CHP plus biothiol; CHP or biothiol alone still binds; settings: chain copies: 2; label: biotin
T3 sequence: T2 sequence

FLAG-OhrR [4] = target: T4, FLAG-OhrR (Bacillus subtilis, UniProt O34777 SEQ:1-147); experiment: pulldown; anti-FLAG beads, 5 uM OhrR, 100 nM DNA, TBS; released by CHP plus cysteine, chemiluminescence readout; settings: tags: FLAG (DYKDDDDK), expressed in E. coli; chain copies: 2; label: 5' biotin on complementary strand; 5' single-stranded peroxidase DNAzyme plus T9 linker overhang
T4 sequence: T2 sequence
Description: After unbound dsDNA was removed by spin-down, 160 μL of a buffer (Tris Buffered Saline, TBS)->20 μL of LMW biothiols (by concentration)->20 μL of CHP (500 μM) were sequentially added to each tube, followed by shaking for 5 minutes. Afterward, 200 μL of a supernatant obtained by spin-down was transferred to a 96-well plate, and fluorescence or chemiluminescence was measured. The reducing agent (DTT)-untreated sample may be used for measuring free LMW biothiols, and the reducing agent-treated sample may be used for measuring total LMW biothiols [FIG. 9].
200 μL of the DNAzyme (5′-GG GTT GGG CGG GAT GGG-3′ [SEQ ID NO: 6], synthesized by IDT)-bound OhrR-binding dsDNA was recovered from a supernatant, and 20 μL of a suspension of NeutrAvidin®-coated beads (Thermo Scientific, USA) was added thereto, followed by shaking at room temperature for 30 minutes. Afterward, washing was performed with a TBS (20 mM Tris, 150 mM NaCl, pH 7.4) buffer four times. To induce DNAzyme activity, 180 μL of a TBS buffer was mixed with 20 μL of 1 μM Hemin (Calbiochem, USA) (in TBS) solution to reach the final volume of 200 μL, the beads were precipitated, and then the resulting solution was left at room temperature under a dark condition for 15 minutes or more. […]

FLAG-OhrR [5] = target: T4, FLAG-OhrR; experiment: pulldown; anti-FLAG beads, 2 uM OhrR, 100 nM DNA, TBS; released by CHP plus biothiol; settings: tags: FLAG (DYKDDDDK), expressed in E. coli; chain copies: 2; label: 6-FAM
Description: First, 30 μL of M2 FLAG affinity beads (Sigma, A2220) were added to respective tubes corresponding to the number of samples, and FLAG-tagged OhrR (2 μM) was bound thereto for 1 hour to reach the total volume of 200 μL (when OhrR is bound to the His6 tag, NTA-Beads can also be used). To remove unbound OhrR, after spin-down, a supernatant was removed, fluorophore or DNAzyme-bound OhrR-binding dsDNA (100 nM, SEQ ID NOs: 1 and 2) was bound to the OhrR-bound beads for 30 minutes. […] Afterward, 200 μL of a supernatant obtained by spin-down was transferred to a 96-well plate, and fluorescence or chemiluminescence was measured. […]
OhrR-binding dsDNA was bound with a fluorescent factor FAM, and 200 μL of the final supernatant was transferred to a 96 well plate, followed by fluorescence measurement using a multi plate reader (Variokan, Thermo Scientific). In the fluorescence measurement, a fluorescent signal value at a 525 nm emission wavelength obtained at an excitation wavelength of 480 nm was obtained, and a fluorescence value of each well was corrected using a well only containing a buffer without a fluorescent factor as a reference value, followed by comparing these values.

[6] = target: T3, OhrR (organic hydroperoxide regulator); experiment: FP; 50 nM DNA, 300 nM OhrR; 20 mM Tris pH 8.0, 150 mM NaCl, 5% glycerol; dissociates on CHP plus Cys/Hcy/GSH; settings: chain copies: 2; label: 6-FAM
Description: The binding activity between OhrR and fluorescence (6FAM, 6-carboxyfluorescein)-labeled OhrR-binding DNA was measured every 10 seconds using an LS55 luminescence spectrometer (PerkinElmer) after dissolution in 3 mL of a buffer at a concentration under the experimental conditions. When OhrR binds to DNA, an anisotropy value (Anis) increases. However, when OhrR is dissociated from DNA, an anisotropy value decreases. In each experiment, three representative biothiols such as cysteine (Cys), homocysteine (Hcy) and glutathione (GSH) were treated at various concentrations (0, 1, 2, 4, 8, 16, 32, and 64 μM). While OhrR was bound to DNA in the presence of only a free biothiol, a real-time dissociation rate of OhrR from DNA was measured by treating a type of representative organic hydroperoxide, that is, cumene hydroperoxide (CHP) (treated at 300 sec).

For `N[C@@H](CS)C(=O)O` [Cys, cysteine], the “detection signal level among the measured LMW biothiols” value (OhrR [1]) was “highest detection signal level” and the “absorbance signal reducing effect compared with homocysteine or GSH” value (OhrR [2]) was “higher absorbance signal reducing effect”.

B1: OhrR operator dsDNA, biotin (dsDNA)
DNA 1: TACAATTAAATTGTATACAATTAAATTGTA
DNA 2: B1 DNA 1 with A8T, A23T
B1: binds (His6-OhrR); binds [3].

B2: DNAzyme-linked OhrR operator dsDNA probe (dsDNA)
DNA 1: GGGTTGGGCGGGATGGGTTTTTTTTTTACAATTAAATTGTATACAATTAAATTGTA
DNA 2: B1 DNA 1 with A8T, A23T
B2: binds (FLAG-OhrR [4]).

B3: OhrR operator dsDNA, 6FAM (dsDNA)
DNA 1: B1 DNA 1
DNA 2: B1 DNA 1 with A8T, A23T
B3: binds (FLAG-OhrR [5]); binds [6].
